According to publication PMC3991606, “Targeting NAD^+ Metabolism in the Human Malaria Parasite Plasmodium falciparum” (PLoS ONE, 2014):

B1: PfNMNAT (Plasmodium falciparum 3D7) (protein)
chain: MHKNICIYGGSFDPITYAHEMVLDKISNLNWIHEIWVVICRCRNDKSLTEFHHRHNMFTIIINNSSKIIKSKIFLKDLESHSEMTPTYDLLKTQKELHPNYTFYFGLGSDLICDIFSWDEGEKLVLENAFIIIERGHFKIDESILKKFPKYYLINIPKLSFINFISSSEARKFLTKENDINDIKKYIHPLTIDYIIKYNLYDFN

Legend:
[1] = target: T1, PfNMNAT (Plasmodium falciparum, UniProt Q8IE38); assay: pyrophosphate release assay, […] nm, […] min preincubation with inhibitor; type: biochemical; conditions: 50 µM 1a-a versus 2% DMSO control
T1 construct: gene PF3D7_1327600
T1 sequence (Q8IE38 1-204): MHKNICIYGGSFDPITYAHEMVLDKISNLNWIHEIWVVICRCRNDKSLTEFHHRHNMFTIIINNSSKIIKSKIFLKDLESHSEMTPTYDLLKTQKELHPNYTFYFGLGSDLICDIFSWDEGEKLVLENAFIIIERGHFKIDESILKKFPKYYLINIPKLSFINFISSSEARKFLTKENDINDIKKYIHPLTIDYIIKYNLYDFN

[2] = substrate: Nc1ncnc2c1ncn2[C@@H]1O[C@H](COP(=O)(O)OP(=O)(O)OP(=O)(O)O)[C@@H](O)[C@H]1O; assay: purified protein; type: biochemical, Plasmodium falciparum; conditions: 500 µM NaMN, 100 mM HEPES, 10 mM MgCl2, pH 7.5, apparent Km
[3] = substrate: O=C([O-])c1ccc[n+]([C@@H]2O[C@H](COP(=O)(O)O)[C@@H](O)[C@H]2O)c1; assay: purified protein; type: biochemical, Plasmodium falciparum; conditions: 500 µM ATP, 100 mM HEPES, 10 mM MgCl2, pH 7.5, apparent Km

| Molecule | inhibition at 50 μM [1] | Km [2] | Km [3] |
| --- | --- | --- | --- |
| O=C(CCC(=O)Nc1ccc(Br)cc1)N/N=C/c1c2ccccc2cc2ccccc12 [1a-a] | 1a-a exhibits specific activity against purified his-PfNMNAT (Figure 4A) | – | – |
| B1 | – | 19.9 ± 6.7 µM | 35.8 ± 5.1 µM |
